Source: paper PMC8446801, “Coiled-coil binding of the leucine zipper domains of APOL1 is necessary for the open cation channel conformation” (The Journal of Biological Chemistry, 2021)

Experiments:
APOL1 G0 (human) = APOL1 G0 (human) (UniProt O14791)
APOL1 LZA 1 (human) = APOL1 LZA 1 (human) (UniProt O14791)
[1] = target: the molecule itself; experiment: cross-linking; disulfide trapping between substituted cysteines, no membranes; protein (~0.159 uM) in 0.2 ml buffer (5 mM succinate, 5 mM Hepes, 0.5 mM KCl, 5 mM CaCl2), room temperature, 1 h at pH 5.6 followed by 1 h at pH 7.2; nonreducing SDS-PAGE, silver stain
[2] = target: the molecule itself; experiment: cross-linking; untreated control protein (lane c): thawed on ice from -80 °C and immediately diluted into SDS sample buffer; nonreducing SDS-PAGE, silver stain

B1: APOL1 G0 (natural protein)
chain: EEAGARVQQNVPSGTDTGDPQSKPLGDWAAGTMDPESSIFIEDAIKYFKEKVSTQNLLLLLTDNEAWNGFVAAAELPRNEADELRKALDNLARQMIMKDKNWHDKGQQYRNWFLKEFPRLKSKLEDNIRRLRALADGVQKVHKGTTIANVVSGSLSISSGILTLVGMGLAPFTEGGSLVLLEPGMELGITAALTGITSSTIDYGKKWWTQAQAHDLVIKSLDKLKEVKEFLGENISNFLSLAGNTYQLTRGIGKDIRALRRARANLQSVPHASASRPRVTEPISAESGEQVERVNEPSILEMSRGVKLTDVAPVSFFLVLDVVYLVYESKHLHEGAKSETAEELKKVAQELEEKLNILNNNYKILQADQEL
trypanosome lysis (T. b. brucei, 24 h), IC50 (APOL1 G0 (human)): 0.125 µg/mL

B2: APOL1 LZA 1 (natural protein)
chain: EEAGARVQQNVPSGTDTGDPQSKPLGDWAAGTMDPESSIFIEDAIKYFKEKVSTQNLLLLLTDNEAWNGFVAAAELPRNEADELRKALDNLARQMIMKDKNWHDKGQQYRNWFLKEFPRLKSKLEDNIRRLRALADGVQKVHKGTTIANVVSGSLSISSGILTLVGMGLAPFTEGGSLVLLEPGMELGITAALTGITSSTIDYGKKWWTQAQAHDLVIKSLDKLKEVKEFLGENISNFLSLAGNTYQLTRGIGKDIRALRRARANLQSVPHASASRPRVTEPISAESGEQVERVNEPSILEMSRGVKLTDVAPVSFFLVLDVVYLVYESKHLHEGAKSETAEEAKKVAQELEEKLNILNNNYKILQADQEL
trypanosome lysis (T. b. brucei, 24 h), IC50 (APOL1 LZA 1 (human)): 0.6 µg/mL

B3: APOL1 A375C (natural protein, human, UniProt O14791 28-398, looked up)
chain: EEAGARVQQNVPSGTDTGDPQSKPLGDWAAGTMDPESSIFIEDAIKYFKEKVSTQNLLLLLTDNEAWNGFVAAAELPRNEADELRKALDNLARQMIMKDKNWHDKGQQYRNWFLKEFPRLKSKLEDNIRRLRALADGVQKVHKGTTIANVVSGSLSISSGILTLVGMGLAPFTEGGSLVLLEPGMELGITAALTGITSSTIDYGKKWWTQAQAHDLVIKSLDKLKEVKEFLGENISNFLSLAGNTYQLTRGIGKDIRALRRARANLQSVPHASASRPRVTEPISAESGEQVERVNEPSILEMSRGVKLTDVAPVSFFLVLDVVYLVYESKHLHEGAKSETAEELKKVCQELEEKLNILNNNYKILQADQEL
notes: Apolipoprotein L-I (APOL1) G0, human, aa 28-398 (without the signal peptide), most common isoform K150, I228, K255 (GenBank AAI12944.2); Cysteine at the a position of the C-terminal leucine zipper (ZIP) domain; APOL1 has no endogenous cysteines; Stored with 1 mM DTT in the SEC buffer; also called apolipoprotein L-I A375C; source: E. coli BL21-DE3-RIPL, purified (nickel-chelate chromatography, …)
stoichiometry N [1]: 2

B4: APOL1 LZA A375C (natural protein, human, UniProt O14791 28-398, looked up)
chain: EEAGARVQQNVPSGTDTGDPQSKPLGDWAAGTMDPESSIFIEDAIKYFKEKVSTQNLLLLLTDNEAWNGFVAAAELPRNEADELRKALDNLARQMIMKDKNWHDKGQQYRNWFLKEFPRLKSKLEDNIRRLRALADGVQKVHKGTTIANVVSGSLSISSGILTLVGMGLAPFTEGGSLVLLEPGMELGITAALTGITSSTIDYGKKWWTQAQAHDLVIKSLDKLKEVKEFLGENISNFLSLAGNTYQLTRGIGKDIRALRRARANLQSVPHASASRPRVTEPISAESGEQVERVNEPSILEMSRGVKLTDVAPVSFFLVLDVVYLVYESKHLHEGAKSETAEEAKKVCQEAEEKLNIANNNYKIAQADQEL
notes: Apolipoprotein L-I (APOL1) G0, human, aa 28-398, isoform K150, I228, K255 (GenBank AAI12944.2), every d position leucine of the ZIP domain to alanine plus A375C; Disulfide dimers were already present in the starting material (formed during purification); source: E. coli BL21-DE3-RIPL, purified (nickel-chelate chromatography, SEC); not shown: His6, N-terminal, kept
stoichiometry N [2]: 2

B5: APOL1 A363C (natural protein, human, UniProt O14791 28-398, looked up)
chain: EEAGARVQQNVPSGTDTGDPQSKPLGDWAAGTMDPESSIFIEDAIKYFKEKVSTQNLLLLLTDNEAWNGFVAAAELPRNEADELRKALDNLARQMIMKDKNWHDKGQQYRNWFLKEFPRLKSKLEDNIRRLRALADGVQKVHKGTTIANVVSGSLSISSGILTLVGMGLAPFTEGGSLVLLEPGMELGITAALTGITSSTIDYGKKWWTQAQAHDLVIKSLDKLKEVKEFLGENISNFLSLAGNTYQLTRGIGKDIRALRRARANLQSVPHASASRPRVTEPISAESGEQVERVNEPSILEMSRGVKLTDVAPVSFFLVLDVVYLVYESKHLHEGCKSETAEELKKVAQELEEKLNILNNNYKILQADQEL
notes: Apolipoprotein L-I (APOL1) G0, human, aa 28-398, isoform K150, I228, K255 (GenBank AAI12944.2); Cysteine in the predicted turn region between the pore-lining region and the ZIP domain, outside the ZIP domain; source: E. coli BL21-DE3-RIPL, purified (nickel-chelate chromatography, SEC); not shown: His6, N-terminal, kept
binding result [1]: binds
